According to publication PMC9214244, “Multivalent Interaction of Beta-Catenin With its Intrinsically Disordered Binding Partner Adenomatous Polyposis Coli” (Frontiers in Molecular Biosciences, 2022):
Where no end group is shown, it is not given here.

Assays:
[1] = target: armadillo (ARM) repeat domain of human β-catenin (residues 134–671) (human) (UniProt P35222); assay: other fluorescence titration; competition: 20 nM Alexa-488-APCbc and 200 nM β-catenin incubated 30 min, then unlabelled APCbc variants titrated; PBS, 1 mM DTT; 25°C
[2] = target: T1, armadillo (ARM) repeat domain of human β-catenin (residues 134–671) (human, UniProt P35222 134-671); assay: fluorescence polarisation; fluorescence anisotropy; β-catenin titrated into 10 nM fluorescein-labelled APC construct; PBS, 1 mM DTT; 15°C; adjusted anisotropy fitted to a Hill equation; settings: both partners purified
T1 construct: two residues left at the N-terminus after thrombin cleavage of GST; β-catenin, human, armadillo repeat domain, residues 134-671; plasmid a gift from W. I. Weis; source: E. coli C41, purified (glutathione-Sepharose, thrombin cleavage on the resin, Mono-Q); not shown: GST, N-terminal, cleaved
T1 sequence: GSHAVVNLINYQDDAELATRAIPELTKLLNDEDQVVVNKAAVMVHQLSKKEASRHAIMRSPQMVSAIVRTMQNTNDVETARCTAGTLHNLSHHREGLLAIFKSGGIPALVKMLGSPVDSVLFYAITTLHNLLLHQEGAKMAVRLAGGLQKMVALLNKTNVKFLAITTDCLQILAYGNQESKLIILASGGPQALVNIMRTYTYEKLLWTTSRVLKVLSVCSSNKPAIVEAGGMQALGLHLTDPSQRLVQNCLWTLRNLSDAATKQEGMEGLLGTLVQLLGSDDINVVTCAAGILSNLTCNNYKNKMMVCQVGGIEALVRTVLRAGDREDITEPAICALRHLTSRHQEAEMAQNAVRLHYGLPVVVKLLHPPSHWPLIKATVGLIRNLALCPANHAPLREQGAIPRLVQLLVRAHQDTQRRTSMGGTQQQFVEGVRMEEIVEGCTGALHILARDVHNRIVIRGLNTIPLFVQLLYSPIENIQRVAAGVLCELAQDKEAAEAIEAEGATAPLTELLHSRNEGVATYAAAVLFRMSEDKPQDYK

[3] = target: T1, armadillo (ARM) repeat domain of human …; assay: as above; settings: both partners purified; remark: listed apart in the source
[4] = target: T1, armadillo (ARM) repeat domain of human …; assay: stopped-flow fluorescence; association: 25 nM fluorescein-labelled APC mixed 1:1 by volume with 250-2,000 nM β-catenin (pseudo first-order); dissociation: pre-formed 1:1 complex (200 nM) mixed with 10 times molar excess of the same APC construct; PBS, 1 mM DTT; 15°C; settings: both partners purified

Molecule: APCbc S1507E (S3), unlabelled (from UniProt P25054 1483-1533) (domain or fragment)
- fold increase in affinity (IC50) against APCbc [1]: 30 fold

Molecule: APCbc S1505E (S2), unlabelled (from UniProt P25054 1483-1533) (domain or fragment)
- fold increase in affinity (IC50) against APCbc [1]: 5 fold

B1: APCabc D1486S, fluorescein-labelled at Cys 1501 (domain or fragment)
chain: SGPKQAAVNAAVQRVQVLPDASTLLHFATESTPDGFSC(fluorescein‑maleimide)SSSLSALSLDEPFIQKDVELRIMPPVQEND
- Kd [2]: 2050 nM

B2: APC R3 construct with E1494T (domain or fragment)
chain: SGPKQAAVNAAVQRVQVLPDADTLLHFATTSTPDGFSC(fluorescein‑maleimide)SSSLSALSLDEPFIQKDVELRIMPPVQEND
modifications: not fully specified
- Kd [3]: > 5000 nM

B3: APCb, lysine-binding domain b of APC R3, fluorescein-labelled at Cys 1501 (domain or fragment)
chain: GSPDADTLLHFATESTPDGFSC(fluorescein‑maleimide)
notes: two residues left at the N-terminus after thrombin cleavage of GST; adenomatous polyposis coli (APC), R3 region, subdomain b, residues 1483-1502; source: E. coli C41, purified (glutathione-Sepharose, thrombin cleavage on the resin, differential filtration); not shown: GST, N-terminal, cleaved
- Kd [2]: 246 nM

B4: APCab, APC R3 subdomains a and b, fluorescein-labelled at Cys 1501 (domain or fragment)
chain: GSSGPKQAAVNAAVQRVQVLPDADTLLHFATESTPDGFSC(fluorescein‑maleimide)
notes: two residues left at the N-terminus after thrombin cleavage of GST; adenomatous polyposis coli (APC), R3 region, subdomains a (1465-1483) and b (1483-1502); source: E. coli C41, purified (glutathione-Sepharose, thrombin cleavage on the resin, differential filtration); not shown: GST, N-terminal, cleaved
- kon [4]: 1.33e+07 M⁻¹ s⁻¹
- Kd [2]: 89.9 nM
